B1: Sqt1-TAP: C-terminally TAP-tagged Sqt1 (protein)
chain: MEPQEEFITTEEVEQEIVPTVEVEQDVPVDIEGENDDDDEMMNDDEEALEVDMSNNSLTYFDKHTDSVFAIGHHPNLPLVCTGGGDNLAHLWTSHSQPPKFAGTLTGYGESVISCSFTSEGGFLVTADMSGKVLVHMGQKGGAQWKLASQMQEVEEIVWLKTHPTIARTFAFGATDGSVWCYQINEQDGSLEQLMSGFVHQQDCSMGEFINTDKGENTLELVTCSLDSTIVAWNCFTGQQLFKITQAEIKGLEAPWISLSLAPETLTKGNSGVVACGSNNGLLAVINCNNGGAILHLSTVIELKPEQDELDASIESISWSSKFSLMAIGLVCGEILLYDTSAWRVRHKFVLEDSVTKLMFDNDDLFASCINGKVYQFNARTGQEKFVCVGHNMGVLDFILLHPVANTGTEQKRKVITAGDEGVSLVFEVPN
modifications: left off: TAP, C-terminal, kept
B2: NTAP-Rrb1: N-terminally TAP-tagged Rrb1 (protein)
chain: MSKRSIEVNEEQDRVVSAKTESHSVPAIPASEEQDAPKNDLEEQLSDEFDSDGEIIEIDGDDEINDEDDLRKKQEEAETLVQKDQSEGNKEKIQELYLPHMSRPLGPDEVLEADPTVYEMLHNVNMPWPCLTLDVIPDTLGSERRNYPQSILLTTATQSSRKKENELMVLALSNLAKTLLKDDNEGEDDEEDDEDDVDPVIENENIPLRDTTNRLKVSPFAISNQEVLTATMSENGDVYIYNLAPQSKAFSTPGYQIPKSAKRPIHTVKNHGNVEGYGLDWSPLIKTGALLSGDCSGQIYFTQRHTSRWVTDKQPFTVSNNKSIEDIQWSRTESTVFATAGCDGYIRIWDTRSKKHKPAISVKASNTDVNVISWSDKIGYLLASGDDNGTWGVWDLRQFTPSNADAVQPVAQYDFHKGAITSIAFNPLDESIVAVGSEDNTVTLWDLSVEADDEEIKQQAAETKELQEIPPQLLFVHWQKEVKDVKWHKQIPGCLVSTGTDGLNVWKTISV
modifications: left off: NTAP (proteinA-TEV-CBP-Flag), N-terminal, kept

Key:
Rpl10 = experiment: tandem-affinity purification of Sqt1-TAP; format: binding, S. cerevisiae; settings: TAP from yeast cell lysate, EGTA eluate, Coomassie
Method: (§1) Cells expressing Sqt1-TAP and NTAP-Rrb1 were grown at 30 °C in 4 l yeast extract peptone dextrose (YPD) medium to an optical density (OD600) of 2. Cell extracts were obtained by glass bead lysis with a Pulverisette (Fritsch). TAPs were performed in a buffer containing 50 mM Tris-HCl (pH 7.5), 100 mM NaCl, 1.5 mM MgCl2, 5% glycerol and 0.1% NP-40 as described. The EGTA eluates were precipitated by the addition of TCA to a final concentration of 10% and, after an acetone wash, dissolved in 80 μl of 3 × SDS sample buffer. Protein samples were separated on NuPAGE 4–12% Bis-Tris 12-well gels (Novex), run in 1 × MES SDS running buffer, and subsequently stained with Brilliant Blue G Colloidal Coomassie (Sigma).

Rpl3 = experiment: tandem-affinity purification of NTAP-Rrb1; format: binding, S. cerevisiae; settings: TAP from yeast cell lysate, EGTA eluate, Coomassie
Method: as §1

Molecule	co-enrichment of Rpl10 (Rpl10)	co-purification of Rpl3 (Rpl3)
B1	good co-enrichment of Rpl10	–
B2	–	robust co-purification of Rpl3
